Assay results: patent US20100272712
Numbering of substitutions follows the chain as printed. In names and notes the source's numbering stands.

Test system: active JNK3 purified protein (Upstate)

B1: Flag-tagged MKP7-ΔC (A.A.1-317, retaining the catalytic domain) (enzyme, UniProt Q9BY84 1-317, looked up, species assumed)
chain: MAHEMIGTQIVTERLVALLESGTEKVLLIDSRPFVEYNTSHILEAININCSKLMKRRLQQDKVLITELIQHSAKHKVDIDCSQKVVVYDQSSQDVASLSSDCFLTVLLGKLEKSFNSVHLLAGGFAEFSRCFPGLCEGKSTLVPTCISQPCLPVANIGPTRILPNLYLGCQRDVLNKELMQQNGIGYVLNASNTCPKPDFIPESHFLRVPVNDSFCEKILPWLDKSVDFIEKAKASNGCVLVHCLAGISRSATIAIAYIMKRMDMSLDEAYRFVKEKRPTISPNFNFLGQLLDYEKKIKNQTGASGPKSKLKLLHLE
modifications: Flag tag
With B1 the “in vitro phosphatase assay (JNK3 phosphorylation by western blot)” value (from here on “in vitro phosphatase assay”) was “Both MKP7-WT and MKP7-ΔC possessed strong phosphatase activities as detected by the decreased phosphorylation of JNK3”.

B2: Flag-tagged MKP7-ΔC (C244S) (enzyme, UniProt Q9BY84 1-317 with C244S, looked up, species assumed)
chain: B1 chain with C244S
modifications: Flag tag
In the case of B2, the “in vitro phosphatase assay” value is reported as “the phosphatase activity of MKP7-ΔC (C^244S) was much lower than that of MKP7-WT or MKP7-ΔC protein, and the activity after GSNO treatment was essentially unchanged”.

B3: Myc-MKP7 (enzyme, UniProt Q9BY84 1-665, looked up, species assumed)
chain: MAHEMIGTQIVTERLVALLESGTEKVLLIDSRPFVEYNTSHILEAININCSKLMKRRLQQDKVLITELIQHSAKHKVDIDCSQKVVVYDQSSQDVASLSSDCFLTVLLGKLEKSFNSVHLLAGGFAEFSRCFPGLCEGKSTLVPTCISQPCLPVANIGPTRILPNLYLGCQRDVLNKELMQQNGIGYVLNASNTCPKPDFIPESHFLRVPVNDSFCEKILPWLDKSVDFIEKAKASNGCVLVHCLAGISRSATIAIAYIMKRMDMSLDEAYRFVKEKRPTISPNFNFLGQLLDYEKKIKNQTGASGPKSKLKLLHLEKPNEPVPAVSEGGQKSETPLSPPCADSATSEAAGQRPVHPASVPSVPSVQPSLLEDSPLVQALSGLHLSADRLEDSNKLKRSFSLDIKSVSYSASMAASLHGFSSSEDALEYYKPSTTLDGTNKLCQFSPVQELSEQTPETSPDKEEASIPKKLQTARPSDSQSKRLHSVRTSSSGTAQRSLLSPLHRSGSVEDNYHTSFLFGLSTSQQHLTKSAGLGLKGWHSDILAPQTSTPSLTSSWYFATESSHFYSASAIYGGSASYSAYSCSQLPTCGDQVYSVRRRQKPSDRADSRRSWHEESPFEKQFKRRSCQMEFGESIMSENRSREELGKVGSQSSFSGSMEIIEVS
modifications: full-length Myc tag
B3 was tested, and the “in vitro phosphatase activity analysis (JNK3 phosphorylation by western blot)” value was “The ectopically-expressed MKP7 protein exhibited strong phosphatase activity as demonstrated by the decrease in JNK3 phosphorylation” and the “in vitro phosphatase activity analysis after GSNO treatment of MKP7” value was “nitrosylation of MKP7 by GSNO markedly inhibited MKP7 phosphatase activity”.

B4: Flag-tagged MKP7-WT (enzyme, UniProt Q9BY84 1-665, looked up, species assumed)
chain: B3 chain
modifications: full-length Flag tag
B4 was tested, and the “in vitro phosphatase assay” value was “Both MKP7-WT and MKP7-ΔC possessed strong phosphatase activities as detected by the decreased phosphorylation of JNK3”.
